In doi:10.1101/2022.07.07.22277364:
pKd: −log10 of the molar value.

Assays:
Assay in all cases: BLI
[1] = molecular target: truncated human ACE2 (residues 19-613 with a C-terminal AviTag and 6xHis-tag), biotinylated (human) (UniProt Q9BYF1)
[2] = molecular target: human ACE2 polymorphism K26R (rs4646116) (human) (UniProt Q9BYF1)
[3] = molecular target: human ACE2 polymorphism S19P (rs73635825) (human) (UniProt Q9BYF1)

Row | Substance | t1/2 [1] | pKd [2] | pKd [3]
1 | SARS-CoV-2 RBD Alpha (B.1.1.7), N501Y (from UniProt P0DTC2) (domain or fragment) | 5.49 min |  | 
2 | SARS-CoV-2 ancestral RBD recombinant protein (from UniProt P0DTC2) (domain or fragment) | 1.39 min |  | 
3 | SARS-CoV-2 RBD Beta (B.1.351) (from UniProt P0DTC2) (domain or fragment) | 2.75 min |  | 
4 | SARS-CoV-2 RBD Gamma (P.1) (from UniProt P0DTC2) (domain or fragment) | 3.58 min |  | 
5 | SARS-CoV-2 Omicron BA.2 RBD (from UniProt P0DTC2) (domain or fragment) | 2.7 min | 8.29 | 8.30
